The supplement of paper PMC11316812
± gives the standard deviation of the averaged measurements.

Experiments:
[1] = test system: hTERT-HMEC; test: percentage of EdU-negative (G0-arrested) nuclei per well, 72 h; higher = more G0 arrest; details: reference: sequence is the full UniProt precursor, the tested protein was the secreted form or ectodomain
[2] = test system: MCF7; test: as above; details: reference: sequence is the full UniProt precursor, the tested protein was the secreted form or ectodomain
[3] = protein concentration 0.0225 µM
[4] = protein concentration 0.01975 µM
[5] = protein concentration 0.1975 µM
[6] = protein concentration 0.0289325 µM
[7] = protein concentration 0.289325 µM
[8] = protein concentration 0.03125 µM
[9] = protein concentration 0.3125 µM
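Also: secreted proteins added to cultured cells, EdU pulse at the end, nuclei found by Hoechst imaging, EdU status from nuclear versus surrounding ring intensity ratio, PBS as neutral control.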

| Sequence | percentage of EdU-negative [1, 3] | percentage of EdU-negative ([1]; protein concentration 0.225 µM) | percentage of EdU-negative [2, 3] | percentage of EdU-negative ([2]; protein concentration 0.225 µM) | other results |
| --- | --- | --- | --- | --- | --- |
| MGPISAPSCRWRIPWQGLLLTASLFTFWNPPTTAQLTIEAVPSNAAEGKEVLLLVHNLPQDPRGYNWYKGETVDANRRIIGYVISNQQITPGPAYSNRETIYPNASLLMRNVTRNDTGSYTLQVIKLNLMSEEVTGQFSVHPETPKPSISSNNSNPVEDKDAVAFTCEPETQNTTYLWWVNGQSLPVSPRLQLSNGNRTLTLLSVTRNDVGPYECEIQNPASANFSDPVTLNVLYGPDAPTISPSDTYYHAGVNLNLSCHAASNPPSQYSWSVNGTFQQYTQKLFIPNITTKNSGSYACHTTNSATGRNRTTVRMITVSDALVQGSSPGLSARATVSIMIGVLARVALI | 5.19 ± 1.8% | 9.55 ± 1.5% | 25.7 ± 1.8% | 27.4 ± 2.2% |  |
| MGPLINRCKKILLPTTVPPATMRIWLLGGLLPFLLLLSGLQRPTEGSEVAIKIDFDFAPGSFDDQYQGCSKQVMEKLTQGDYFTKDIEAQKNYFRMWQKAHLAWLNQGKVLPQNMTTTHAVAILFYTLNSNVHSDFTRAMASVARTPQQYERSFHFKYLHYYLTSAIQLLRKDSIMENGTLCYEVHYRTKDVHFNAYTGATIRFGQFLSTSLLKEEAQEFGNQTLFTIFTCLGAPVQYFSLKKEVLIPPYELFKVINMSYHPRGDWLQLRSTGNLSTYNCQLLKASSKKCIPDPIAIASLSFLTSVIIFSKSRV | 5.08 ± 0.63% | 6.69 ± 0.27% | 23.9 ± 0.46% | 27.2 ± 0.8% |  |
| MGPLMVLFCLLFLYPGLADSAPSCPQNVNISGGTFTLSHGWAPGSLLTYSCPQGLYPSPASRLCKSSGQWQTPGATRSLSKAVCKPVRCPAPVSFENGIYTPRLGSYPVGGNVSFECEDGFILRGSPVRQCRPNGMWDGETAVCDNGAGHCPNPGISLGAVRTGFRFGHGDKVRYRCSSNLVLTGSSERECQGNGVWSGTEPICRQPYSYDFPEDVAPALGTSFSHMLGATNPTQKTKESLGRKIQIQRSGHLNLYLLLDCSQSVSENDFLIFKESASLMVDRIFSFEINVSVAIITFASEPKVLMSVLNDNSRDMTEVISSLENANYKDHENGTGTNTYAALNSVYLMMNNQMRLLGMETMAWQEIRHAIILLTDGKSNMGGSPKTAVDHIREILNINQKRNDYLDIYAIGVGKLDVDWRELNELGSKKDGERHAFILQDTKALHQVFEHMLDVSKLTDTICGVGNMSANASDQERTPWHVTIKPKSQETCRGALISDQWVLTAAHCFRDGNDHSLWRVNVGDPKSQWGKEFLIEKAVISPGFDVFAKKNQGILEFYGDDIALLKLAQKVKMSTHARPICLPCTMEANLALRRPQGSTCRDHENELLNKQSVPAHFVALNGSKLNINLKMGVEWTSCAEVVSQEKTMFPNLTDVREVVTDQFLCSGTQEDESPCKGESGGAVFLERRFRFFQVGLVSWGLYNPCLGSADKNSRKRAPRSKVPPPRDFHINLFRMQPWLRQHLGDVLNFLPL |  |  |  |  | percentage of EdU-negative [1, 4]: 5.66 ± 0.4%; percentage of EdU-negative [1, 5]: 16.21 ± 0.11%; percentage of EdU-negative [2, 4]: 27.3 ± 1.1%; percentage of EdU-negative [2, 5]: 27.9 ± 2% |
| MGPLPAPSCTQRITWKGLLLTASLLNFWNPPTTAEVTIEAQPPKVSEGKDVLLLVHNLPQNLPGYFWYKGEMTDLYHYIISYIVDGKIIIYGPAYSGRETVYSNASLLIQNVTRKDAGTYTLHIIKRGDETREEIRHFTFTLYLETPKPYISSSNLNPREAMEAVRLICDPETLDASYLWWMNGQSLPVTHRLQLSKTNRTLYLFGVTKYIAGPYECEIRNPVSASRSDPVTLNLLPKLPIPYITINNLNPRENKDVLAFTCEPKSENYTYIWWLNGQSLPVSPGVKRPIENRILILPSVTRNETGPYQCEIRDRYGGLRSNPVILNVLYGPDLPRIYPSFTYYRSGENLDLSCFTESNPPAEYFWTINGKFQQSGQKLFIPQITRNHSGLYACSVHNSATGKEISKSMTVKVSGPCHGDLTESQS |  |  |  |  | percentage of EdU-negative [1, 6]: 4.85 ± 0.41%; percentage of EdU-negative [1, 7]: 4.97 ± 0.19%; percentage of EdU-negative [2, 6]: 25.2 ± 0.61%; percentage of EdU-negative [2, 7]: 26.3 ± 0.9% |
| MGPLPVCLPIMLLLLLPSLLLLLLLPGPGSGEASRILRVHRRGILELAGTVGCVGPRTPIAYMKYGCFCGLGGHGQPRDAIDWCCHGHDCCYTRAEEAGCSPKTERYSWQCVNQSVLCGPAENKCQELLCKCDQEIANCLAQTEYNLKYLFYPQFLCEPDSPKCD | 7.05 ± 0.95% | 10.3 ± 2.1% | 29.3 ± 2.5% | 31.17 ± 0.13% |  |
| MGPLSAPPCTEHIKWKGLLLTALLLNFWNLPTTAQVMIEAQPPKVSEGKDVLLLVHNLPQNLTGYIWYKGQIRDLYHYITSYVVDGQIIIYGPAYSGRETVYSNASLLIQNVTREDAGSYTLHIIKRGDGTRGVTGYFTFTLYLETPKPSISSSNLNPREAMETVILTCNPETPDASYLWWMNGQSLPMTHRMQLSETNRTLFLFGVTKYTAGPYECEIWNSGSASRSDPVTLNLLHGPDLPRIFPSVTSYYSGENLDLSCFANSNPPAQYSWTINGKFQLSGQKLFIPQITPKHNGLYACSARNSATGEESSTSLTIRVIAPPGLGTFAFNNPT [Q9UQ72] |  |  |  |  | percentage of EdU-negative [1, 8]: 4.83 ± 0.7%; percentage of EdU-negative [1, 9]: 5.46 ± 1.1%; percentage of EdU-negative [2, 8]: 24.9 ± 4.1%; percentage of EdU-negative [2, 9]: 26.7 ± 1.1% |
